From PMC2715226 come the findings set out here.

Data set [1] addresses T1, Ets-1 p42 (human, UniProt P14921-2 1-354).
T1 sequence: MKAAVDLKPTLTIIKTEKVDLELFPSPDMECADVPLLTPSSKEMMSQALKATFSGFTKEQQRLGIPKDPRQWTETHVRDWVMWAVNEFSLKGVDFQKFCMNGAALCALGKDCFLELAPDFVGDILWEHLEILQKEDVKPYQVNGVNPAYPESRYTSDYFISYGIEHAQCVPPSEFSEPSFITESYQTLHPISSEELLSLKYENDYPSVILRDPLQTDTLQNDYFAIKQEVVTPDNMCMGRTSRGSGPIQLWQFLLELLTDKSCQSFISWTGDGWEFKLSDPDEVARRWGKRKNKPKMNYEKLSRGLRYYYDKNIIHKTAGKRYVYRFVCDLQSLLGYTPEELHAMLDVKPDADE
The experiment in a line: not stated.

Data set [2] concerns the target T1, Ets-1 p42. Kind of data set: EMSA. (Mobility shift assays separate free from complexed probe on a gel.)
In another data set the target is T2, p51ΔN331 (human, UniProt P14921 331-441).
T2 sequence: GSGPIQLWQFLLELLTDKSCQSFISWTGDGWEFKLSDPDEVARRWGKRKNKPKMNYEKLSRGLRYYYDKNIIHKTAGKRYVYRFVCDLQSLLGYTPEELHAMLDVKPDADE
Kind of data set: EMSA.

A further data set addresses T3, p51ΔC415 (human, UniProt P14921 1-415).
T3 sequence: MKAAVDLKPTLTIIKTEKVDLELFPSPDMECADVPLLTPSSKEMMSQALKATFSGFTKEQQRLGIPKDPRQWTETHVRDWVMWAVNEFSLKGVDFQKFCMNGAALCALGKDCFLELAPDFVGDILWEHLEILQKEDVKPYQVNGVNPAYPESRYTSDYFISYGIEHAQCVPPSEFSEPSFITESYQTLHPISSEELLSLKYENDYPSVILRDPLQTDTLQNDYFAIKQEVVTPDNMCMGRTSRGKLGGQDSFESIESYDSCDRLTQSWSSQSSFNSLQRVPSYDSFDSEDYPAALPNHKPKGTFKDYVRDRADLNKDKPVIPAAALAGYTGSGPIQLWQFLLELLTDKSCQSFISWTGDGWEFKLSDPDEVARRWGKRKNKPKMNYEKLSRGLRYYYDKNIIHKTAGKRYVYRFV
Kind of data set: EMSA.

A further data set concerns the target T4, p51(301-415) (human, UniProt P14921 301-415).
T4 sequence: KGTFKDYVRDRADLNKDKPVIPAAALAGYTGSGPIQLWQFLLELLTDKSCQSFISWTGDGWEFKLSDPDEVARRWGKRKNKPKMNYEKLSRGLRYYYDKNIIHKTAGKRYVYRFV
The experiment in a line: EMSA.

Another data set concerns the target T5, p42ΔC328 (human, UniProt P14921-2 1-328).
T5 sequence: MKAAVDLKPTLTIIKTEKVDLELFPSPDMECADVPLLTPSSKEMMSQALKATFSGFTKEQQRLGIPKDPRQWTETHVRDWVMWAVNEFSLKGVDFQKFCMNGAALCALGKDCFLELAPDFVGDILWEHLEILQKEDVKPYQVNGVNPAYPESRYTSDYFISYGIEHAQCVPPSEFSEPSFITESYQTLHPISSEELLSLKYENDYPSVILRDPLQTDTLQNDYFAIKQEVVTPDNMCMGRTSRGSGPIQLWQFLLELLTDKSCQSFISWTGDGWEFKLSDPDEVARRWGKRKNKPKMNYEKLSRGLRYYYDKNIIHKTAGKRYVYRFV
The experiment in a line: EMSA.

The next data set deals with T6, Ets-1 DBD (human, UniProt P14921 331-415).
T6 sequence: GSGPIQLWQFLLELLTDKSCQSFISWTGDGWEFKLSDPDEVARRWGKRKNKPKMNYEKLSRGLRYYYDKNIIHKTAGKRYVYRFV
Kind of data set: EMSA.

B1: WT (dsDNA)
DNA 1: ACCAAGACAGGAAGCACTTCCTGGAGATTA
DNA 2: TAATCTCCAGGAAGTGCTTCCTGTCTTGGT
For orientation: Kd means the equilibrium constant for the complex coming apart. Low readings indicate tighter binding, high ones weaker binding. Turning to B1, the dissociation constant (Kd) with Ets-1 p42 [1] is ~20 nM.

B2: IP (dsDNA)
DNA 1: ACCAAGAGCTTCCTGCAGGAAGTGAGATTA
DNA 2: TAATCTCACTTCCTGCAGGAAGCTCTTGGT
With B2, the binding result with Ets-1 p42 [2] is on record as “binds”.

B3: WT+4 (dsDNA)
DNA 1: ACCAAGACAGGAAGCACGCACTTCCTGGAGATTA
DNA 2: TAATCTCCAGGAAGTGCGTGCTTCCTGTCTTGGT
B3: the binding result in the data set with p51ΔN331, in the data set with p51ΔC415, with p51(301-415), with p42ΔC328, with Ets-1 DBD and in the data set with Ets-1 p42 [2] was “binds” each time.

B4: M2 (dsDNA)
DNA 1: ACCAAGACAGGAAGCACTTTTTGGAGATTA
DNA 2: TAATCTCCAAAAAGTGCTTCCTGTCTTGGT
Turning to B4, in the data set with Ets-1 p42 [1], the Kd was ~20 nM.

B5: M1 (dsDNA)
DNA 1: ACCAAGACAAAAAGCACTTCCTGGAGATTA
DNA 2: TAATCTCCAGGAAGTGCTTTTTGTCTTGGT
On to B5, for which, in the data set with Ets-1 p42 [1], the Kd is ~20 nM.
